This is an account of results in PMC8771699 (ACS Omega, 2022).

The nature of the data set: FE-SEM self-assembly. It counts as physicochemical. Conditions: HEPES pH 7.4, porphyrin 1.15 × 10^–3 M, peptide 2.3 × 10^–3 M, time of incubation 7 days.

Regarding “RGDSGAITIGH [RGDSGAITIGH + Py3P-Lys-NTA + Ni^2+]”, the self-assembled nanostructure morphology result is reported as “porous fibrillar network”.
